Experimental data as given in patent US20070212700A1, “Methods of using and analyzing biological sequence data” (THE BOARD OF REGENTS OF THE UNIVERSITY OF TEXAS SYSTEM, priority 2005, published 2007).

Target: PPxY-containing peptide
Experiment: isothermal titration calorimetry, ratio of equilibrium dissociation constants (mutant vs wild-type Nedd4.3 WW domain)

fold effect on peptide binding relative to wild-type: 5.15 fold
Substance: Nedd4.3 WW domain L3A mutant (from UniProt Q62940 459-492)
